Reference: article PMC2766932 (Biochemistry, 2009)
Positions count from the first letter of the chain named. Names may count otherwise. One block for each molecule: values may come before it.

Key:
Assay in all cases: pull-down
MBP-3 D260A = biological target: MBP-3 D260A
MBP-3 S246D = biological target: MBP-3 S246D
MBP-3 S279A = biological target: MBP-3 S279A
MBP-3 S287A = biological target: MBP-3 S287A
MBP-3 S287D = biological target: MBP-3 S287D
MBP-3 Q243A = biological target: T1, MBP-3 Q243A
T1 chain: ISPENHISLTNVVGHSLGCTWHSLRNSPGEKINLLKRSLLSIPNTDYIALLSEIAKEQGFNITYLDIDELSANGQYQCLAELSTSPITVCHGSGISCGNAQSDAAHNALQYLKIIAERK

MBP-3 D262A = biological target: T2, MBP-3 D262A
T2 chain: T1 chain with A49Q, D68A

PKR bound, percent of wt MBP-3 (MBP-3 D260A): 63%
PKR bound, percent of wt MBP-3 (MBP-3 S246D): 100%
PKR bound, percent of wt MBP-3 (MBP-3 S279A): 23%
PKR bound, percent of wt MBP-3 (MBP-3 S287A): 59%
PKR bound, percent of wt MBP-3 (MBP-3 S287D): 95%
Molecule: PKR (K296R)-FLAG (from UniProt P19525 1-551) (enzyme)

PKR bound, percent of wt MBP-3 (MBP-3 Q243A): 9%
PKR bound, percent of wt MBP-3 (MBP-3 D262A): 2%
B1: PKR (K296R)-FLAG (enzyme, UniProt P19525 1-551, looked up)
chain: MAGDLSAGFFMEELNTYRQKQGVVLKYQELPNSGPPHDRRFTFQVIIDGREFPEGEGRSKKEAKNAAAKLAVEILNKEKKAVSPLLLTTTNSSEGLSMGNYIGLINRIAQKKRLTVNYEQCASGVHGPEGFHYKCKMGQKEYSIGTGSTKQEAKQLAAKLAYLQILSEETSVKSDYLSSGSFATTCESQSNSLVTSTLASESSSEGDFSADTSEINSNSDSLNSSSLLMNGLRNNQRKAKRSLAPRFDLPDMKETKYTVDKRFGMDFKEIELIGSGGFGQVFKAKHRIDGKTYVIRRVKYNNEKAEREVKALAKLDHVNIVHYNGCWDGFDYDPETSDDSLESSDYDPENSKNSSRSKTKCLFIQMEFCDKGTLEQWIEKRRGEKLDKVLALELFEQITKGVDYIHSKKLIHRDLKPSNIFLVDTKQVKIGDFGLVTSLKNDGKRTRSKGTLRYMSPEQISSQDYGKEVDLYALGLILAELLHVCDTAFETSKFFTDLRDGIISDIFDKKEKTLLQKLLSKKPEDRPNTSEILRTLTVWKKSPEKNERHTC
